B1: Ribonuclease, P00648 (parent)
chain: MMKMEGIALKKRLSWISVCLLVLVSAAGMLFSTAAKTETSSHKAHTEAQVINTFDGVADYLQTYHKLPDNYITKSEAQALGWVASKGNLADVAPGKSIGGDIFSNREGKLPGKSGRTWREADINYTSGFRNSDRILYSSDWLIYKTTDHYQTFTKIR

Variants of: B1
Details: Bacillus amyloliquefaciens; pH 6.3; 25 °C; Urea; Fluorescence; MES-NaOH 450 mM; reversible: yes; structure 1BNI; whole UniProt chain shown

Variant | ddG of mutation (higher = less stable) | denaturant m value | denaturant midpoint (higher = more stable) | unfolding free energy
MMKMEGIALKKRLSWISVCLLVLVSAAGMLFSTAAKTETSSHKAHTEAQVINTFDGVADYLQTYHKLPDNYITKSEAQALGWAASKGNLADVAPGKSIGGDIFSNREGKLPGKSGRTWREADINYTSGFRNSDRILYSSDWLIYKTTDHYQTFTKIR [V83A] | 7.03 kJ/mol | 1.83 kcal/mol/M | 3.9 M | 29.9 kJ/mol
MMKMEGIALKKRLSWISVCLLVLVSAAGMLFSTAAKTETSSHKAHTEAQVINTFDGTADYLQTYHKLPDNYITKSEAQALGWVASKGNLADVAPGKSIGGDIFSNREGKLPGKSGRTWREADINYTSGFRNSDRILYSSDWLIYKTTDHYQTFTKIR [V57T] | 8.33 kJ/mol | 2.07 kcal/mol/M | 3.3 M | 28.6 kJ/mol
MMKMEGIALKKRLSWISVCLLVLVSAAGMLFSTAAKTETSSHKAHTEAQVINTFDGAADYLQTYHKLPDNYITKSEAQALGWVASKGNLADVAPGKSIGGDIFSNREGKLPGKSGRTWREADINYTSGFRNSDRILYSSDWLIYKTTDHYQTFTKIR [V57A] | 14.5 kJ/mol | 1.89 kcal/mol/M | 2.8 M | 22.4 kJ/mol
MMKMEGIALKKRLSWISVCLLVLVSAAGMLFSTAAKTETSSHKAHTEAQVINTFDGVADYLQTYHKLPDNYATKSEAQALGWVASKGNLADVAPGKSIGGDIFSNREGKLPGKSGRTWREADINYTSGFRNSDRILYSSDWLIYKTTDHYQTFTKIR [I72A] | 15.4 kJ/mol | 1.85 kcal/mol/M | 2.7 M | 21.5 kJ/mol
MMKMEGIALKKRLSWISVCLLVLVSAAGMLFSTAAKTETSSHKAHTEAQVINTFDGVADYLQTYHKLPDNYVTKSEAQALGWVASKGNLADVAPGKSIGGDIFSNREGKLPGKSGRTWREADINYTSGFRNSDRILYSSDWLIYKTTDHYQTFTKIR [I72V] | 3.47 kJ/mol | 2 kcal/mol/M | 4 M | 33.4 kJ/mol
MMKMEGIALKKRLSWISVCLLVLVSAAGMLFSTAAKTETSSHKAHTEAQVIATFDGVADYLQTYHKLPDNYITKSEAQALGWVASKGNLADVAPGKSIGGDIFSNREGKLPGKSGRTWREADINYTSGFRNSDRILYSSDWLIYKTTDHYQTFTKIR [N52A] | 6.65 kJ/mol | 2 kcal/mol/M | 3.6 M | 30.3 kJ/mol
MMKMEGIALKKRLSWISVCLLVLVSAAGMLFSTAAKTETSSHKAHTEAQVINTFDGVADYLQTYHKLPDNYITKSEAQALGWVASKGDLADVAPGKSIGGDIFSNREGKLPGKSGRTWREADINYTSGFRNSDRILYSSDWLIYKTTDHYQTFTKIR [N88D] | 11 kJ/mol | 1.89 kcal/mol/M | 3.2 M | 25.9 kJ/mol
MMKMEGIALKKRLSWISVCLLVLVSAAGMLFSTAAKTETSSHKAHTEAQVINTFDGVADYLQTYHKLPDNYITKSEASALGWVASKGNLADVAPGKSIGGDIFSNREGKLPGKSGRTWREADINYTSGFRNSDRILYSSDWLIYKTTDHYQTFTKIR [Q78S] | -0.293 kJ/mol | 2 kcal/mol/M | 4.4 M | 37.2 kJ/mol
MMKMEGIALKKRLSWISVCLLVLVSAAGMLFSTAAKTETSSHKAHTEAQVINTFDGVADYLQTYHKLPDNYITKSGAQALGWVASKGNLADVAPGKSIGGDIFSNREGKLPGKSGRTWREADINYTSGFRNSDRILYSSDWLIYKTTDHYQTFTKIR [E76G] | 8.58 kJ/mol | 1.84 kcal/mol/M | 3.6 M | 28.3 kJ/mol
MMKMEGIALKKRLSWISVCLLVLVSAAGMLFSTAAKTETSSHKAHTEAQVVNTFDGVADYLQTYHKLPDNYITKSEAQALGWVASKGNLADVAPGKSIGGDIFSNREGKLPGKSGRTWREADINYTSGFRNSDRILYSSDWLIYKTTDHYQTFTKIR [I51V] | 3.39 kJ/mol | 1.88 kcal/mol/M | 4.2 M | 33.5 kJ/mol
MMKMEGIALKKRLSWISVCLLVLVSAAGMLFSTAAKTETSSHKAHTEAQVANTFDGVADYLQTYHKLPDNYITKSEAQALGWVASKGNLADVAPGKSIGGDIFSNREGKLPGKSGRTWREADINYTSGFRNSDRILYSSDWLIYKTTDHYQTFTKIR [I51A] | 3.14 kJ/mol | 2.08 kcal/mol/M | 3.8 M | 33.8 kJ/mol
MMKMEGIALKKRLSWISVCLLVLVSAAGMLFSTAAKTETSSHKAHTEAQVINGFDGVADYLQTYHKLPDNYITKSEAQALGWVASKGNLADVAPGKSIGGDIFSNREGKLPGKSGRTWREADINYTSGFRNSDRILYSSDWLIYKTTDHYQTFTKIR [T53G] | 2.55 kJ/mol | 2.08 kcal/mol/M | 3.9 M | 34.4 kJ/mol
MMKMEGIALKKRLSWISVCLLVLVSAAGMLFSTAAKTETSSHKAHTEAQVINAFDGVADYLQTYHKLPDNYITKSEAQALGWVASKGNLADVAPGKSIGGDIFSNREGKLPGKSGRTWREADINYTSGFRNSDRILYSSDWLIYKTTDHYQTFTKIR [T53A] | 8.45 kJ/mol | 1.97 kcal/mol/M | 3.4 M | 28.5 kJ/mol
MMKMEGIALKKRLSWISVCLLVLVSAAGMLFSTAAKTETSSHKAHTEAQVINTFDGVADYLQSYHKLPDNYITKSEAQALGWVASKGNLADVAPGKSIGGDIFSNREGKLPGKSGRTWREADINYTSGFRNSDRILYSSDWLIYKTTDHYQTFTKIR [T63S] | 5.69 kJ/mol | 2.03 kcal/mol/M | 3.6 M | 31.2 kJ/mol
MMKMEGIALKKRLSWISVCLLVLVSAAGMLFSTAAKTETSSHKAHTEAQVINTFDGVADYLQRYHKLPDNYITKSEAQALGWVASKGNLADVAPGKSIGGDIFSNREGKLPGKSGRTWREADINYTSGFRNSDRILYSSDWLIYKTTDHYQTFTKIR [T63R] | -3.1 kJ/mol | 1.99 kcal/mol/M | 4.8 M | 40 kJ/mol
MMKMEGIALKKRLSWISVCLLVLVSAAGMLFSTAAKTETSSHKAHTEAQVINTFDGVADYLQTYHKLPDAYITKSEAQALGWVASKGNLADVAPGKSIGGDIFSNREGKLPGKSGRTWREADINYTSGFRNSDRILYSSDWLIYKTTDHYQTFTKIR [N70A] | 9.2 kJ/mol | 1.94 kcal/mol/M | 3.4 M | 27.7 kJ/mol
